Measurements from patent publication US10500249B2, “Compositions and methods for preventing or treating diseases, conditions, or processes characterized by aberrant fibroblast proliferation and extracellular matrix deposition” (MOERAE MATRIX, INC., priority 2014, dated 2019).

What was measured:
Assay in all cases: Kinase Profiling Assay
Type in all cases: biochemical
Conditions in all cases: 100 μM
MINK (h) = biological target: T1, MINK (h) (Homo sapiens, UniProt Q8N4C8)
T1 construct: purchased Millipore
Method in brief: (§1)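 Each kinase activity was measured in duplicate. Phosphorylation of a positively charged substrate with radiolabeled phosphate from ATP was captured on a negatively charged filter, counted by scintillation and expressed relative to a 100% activity control. MK2 inhibitory peptides were screened for specificity across 266 human kinases.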

ASK1 (h) = biological target: T2, ASK1 (h) (Homo sapiens, UniProt Q99683)
T2 sequence (Q99683 1-1374): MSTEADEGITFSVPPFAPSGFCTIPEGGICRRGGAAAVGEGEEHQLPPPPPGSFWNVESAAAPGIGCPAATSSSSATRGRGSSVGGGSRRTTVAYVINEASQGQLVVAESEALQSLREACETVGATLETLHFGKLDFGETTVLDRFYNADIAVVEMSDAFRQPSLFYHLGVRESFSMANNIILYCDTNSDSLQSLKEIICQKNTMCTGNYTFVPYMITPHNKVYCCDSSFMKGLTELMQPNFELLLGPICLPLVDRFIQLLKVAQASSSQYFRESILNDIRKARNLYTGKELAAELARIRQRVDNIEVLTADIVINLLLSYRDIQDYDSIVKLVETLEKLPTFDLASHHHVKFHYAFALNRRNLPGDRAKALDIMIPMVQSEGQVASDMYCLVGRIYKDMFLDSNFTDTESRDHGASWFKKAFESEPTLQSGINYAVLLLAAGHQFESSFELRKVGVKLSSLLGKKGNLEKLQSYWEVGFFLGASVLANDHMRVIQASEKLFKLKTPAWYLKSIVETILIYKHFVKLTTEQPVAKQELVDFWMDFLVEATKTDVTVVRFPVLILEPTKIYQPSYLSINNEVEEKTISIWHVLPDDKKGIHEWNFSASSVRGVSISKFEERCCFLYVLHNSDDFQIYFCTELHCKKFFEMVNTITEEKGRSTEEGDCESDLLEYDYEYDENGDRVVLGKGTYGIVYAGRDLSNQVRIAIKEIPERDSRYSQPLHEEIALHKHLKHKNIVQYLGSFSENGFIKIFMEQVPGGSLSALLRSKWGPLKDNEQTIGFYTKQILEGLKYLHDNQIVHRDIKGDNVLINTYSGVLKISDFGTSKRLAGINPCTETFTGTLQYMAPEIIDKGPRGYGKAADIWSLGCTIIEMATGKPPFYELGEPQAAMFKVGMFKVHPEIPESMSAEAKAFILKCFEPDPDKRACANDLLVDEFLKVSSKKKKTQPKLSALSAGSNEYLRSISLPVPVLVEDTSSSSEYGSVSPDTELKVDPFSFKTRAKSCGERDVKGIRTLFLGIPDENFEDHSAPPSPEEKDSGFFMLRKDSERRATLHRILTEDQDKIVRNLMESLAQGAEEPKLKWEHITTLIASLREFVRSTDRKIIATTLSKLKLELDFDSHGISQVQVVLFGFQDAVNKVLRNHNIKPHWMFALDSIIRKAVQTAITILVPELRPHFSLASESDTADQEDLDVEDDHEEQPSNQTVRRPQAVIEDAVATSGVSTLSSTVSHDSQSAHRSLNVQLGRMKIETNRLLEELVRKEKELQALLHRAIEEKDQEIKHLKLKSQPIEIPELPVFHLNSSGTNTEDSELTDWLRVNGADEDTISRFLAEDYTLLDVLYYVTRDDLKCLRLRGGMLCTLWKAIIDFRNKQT
Method in brief: as §1

DAPK2 (h) = biological target: T3, DAPK2 (h) (Homo sapiens, UniProt Q9UIK4)
T3 construct: purchased Millipore
Method in brief: as §1

Ron (h) = Ron (h) (Homo sapiens, UniProt Q04912)
Method in brief: as §1

Tie2 (h) = Tie2 (h) (Homo sapiens, UniProt Q02763)
Method in brief: as §1

MAPKAP-K2 (h) = MAPKAP-K2 (h) (Homo sapiens, UniProt P49137)
Method in brief: as §1

Chain of Tie2 (h) (Q02763 23-1124): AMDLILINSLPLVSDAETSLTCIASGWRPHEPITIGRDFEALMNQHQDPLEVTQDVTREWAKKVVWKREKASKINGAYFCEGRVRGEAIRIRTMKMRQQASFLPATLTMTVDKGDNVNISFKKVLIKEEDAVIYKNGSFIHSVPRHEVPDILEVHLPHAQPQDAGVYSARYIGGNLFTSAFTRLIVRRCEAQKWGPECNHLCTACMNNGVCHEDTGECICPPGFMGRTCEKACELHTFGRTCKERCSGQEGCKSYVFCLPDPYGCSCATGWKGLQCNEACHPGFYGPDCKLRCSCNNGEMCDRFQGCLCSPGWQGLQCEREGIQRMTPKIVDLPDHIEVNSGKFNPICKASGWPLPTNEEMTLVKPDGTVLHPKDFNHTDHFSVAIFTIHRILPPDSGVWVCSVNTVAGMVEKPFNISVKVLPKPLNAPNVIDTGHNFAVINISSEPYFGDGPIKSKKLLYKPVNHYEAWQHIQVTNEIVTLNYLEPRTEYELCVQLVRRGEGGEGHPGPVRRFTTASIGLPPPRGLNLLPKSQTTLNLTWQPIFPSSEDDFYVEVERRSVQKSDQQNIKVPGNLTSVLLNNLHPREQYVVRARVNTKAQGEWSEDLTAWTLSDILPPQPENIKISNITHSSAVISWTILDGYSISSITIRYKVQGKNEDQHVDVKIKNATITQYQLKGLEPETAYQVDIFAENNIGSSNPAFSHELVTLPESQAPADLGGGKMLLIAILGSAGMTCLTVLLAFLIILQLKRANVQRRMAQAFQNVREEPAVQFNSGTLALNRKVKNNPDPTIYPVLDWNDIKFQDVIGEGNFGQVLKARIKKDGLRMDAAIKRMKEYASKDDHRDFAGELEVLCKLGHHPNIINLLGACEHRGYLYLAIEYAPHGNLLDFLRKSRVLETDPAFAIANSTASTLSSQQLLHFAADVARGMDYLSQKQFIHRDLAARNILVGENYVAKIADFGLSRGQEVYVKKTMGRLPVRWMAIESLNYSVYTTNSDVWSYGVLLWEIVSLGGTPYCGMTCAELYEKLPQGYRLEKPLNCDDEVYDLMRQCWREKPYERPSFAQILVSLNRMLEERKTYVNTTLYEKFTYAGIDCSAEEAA
Chain of MAPKAP-K2 (h) (P49137 whole entry): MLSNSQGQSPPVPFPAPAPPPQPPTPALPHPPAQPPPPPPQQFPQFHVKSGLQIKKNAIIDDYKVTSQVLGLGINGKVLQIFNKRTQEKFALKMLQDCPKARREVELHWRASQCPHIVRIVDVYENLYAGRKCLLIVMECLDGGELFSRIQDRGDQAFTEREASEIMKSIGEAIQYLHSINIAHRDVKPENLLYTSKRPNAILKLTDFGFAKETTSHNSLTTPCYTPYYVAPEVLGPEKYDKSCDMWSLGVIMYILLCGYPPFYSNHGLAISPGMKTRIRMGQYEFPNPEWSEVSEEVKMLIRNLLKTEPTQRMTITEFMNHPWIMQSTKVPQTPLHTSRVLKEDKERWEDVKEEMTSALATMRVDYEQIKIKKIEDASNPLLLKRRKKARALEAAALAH
T1 sequence (Q8N4C8 whole entry): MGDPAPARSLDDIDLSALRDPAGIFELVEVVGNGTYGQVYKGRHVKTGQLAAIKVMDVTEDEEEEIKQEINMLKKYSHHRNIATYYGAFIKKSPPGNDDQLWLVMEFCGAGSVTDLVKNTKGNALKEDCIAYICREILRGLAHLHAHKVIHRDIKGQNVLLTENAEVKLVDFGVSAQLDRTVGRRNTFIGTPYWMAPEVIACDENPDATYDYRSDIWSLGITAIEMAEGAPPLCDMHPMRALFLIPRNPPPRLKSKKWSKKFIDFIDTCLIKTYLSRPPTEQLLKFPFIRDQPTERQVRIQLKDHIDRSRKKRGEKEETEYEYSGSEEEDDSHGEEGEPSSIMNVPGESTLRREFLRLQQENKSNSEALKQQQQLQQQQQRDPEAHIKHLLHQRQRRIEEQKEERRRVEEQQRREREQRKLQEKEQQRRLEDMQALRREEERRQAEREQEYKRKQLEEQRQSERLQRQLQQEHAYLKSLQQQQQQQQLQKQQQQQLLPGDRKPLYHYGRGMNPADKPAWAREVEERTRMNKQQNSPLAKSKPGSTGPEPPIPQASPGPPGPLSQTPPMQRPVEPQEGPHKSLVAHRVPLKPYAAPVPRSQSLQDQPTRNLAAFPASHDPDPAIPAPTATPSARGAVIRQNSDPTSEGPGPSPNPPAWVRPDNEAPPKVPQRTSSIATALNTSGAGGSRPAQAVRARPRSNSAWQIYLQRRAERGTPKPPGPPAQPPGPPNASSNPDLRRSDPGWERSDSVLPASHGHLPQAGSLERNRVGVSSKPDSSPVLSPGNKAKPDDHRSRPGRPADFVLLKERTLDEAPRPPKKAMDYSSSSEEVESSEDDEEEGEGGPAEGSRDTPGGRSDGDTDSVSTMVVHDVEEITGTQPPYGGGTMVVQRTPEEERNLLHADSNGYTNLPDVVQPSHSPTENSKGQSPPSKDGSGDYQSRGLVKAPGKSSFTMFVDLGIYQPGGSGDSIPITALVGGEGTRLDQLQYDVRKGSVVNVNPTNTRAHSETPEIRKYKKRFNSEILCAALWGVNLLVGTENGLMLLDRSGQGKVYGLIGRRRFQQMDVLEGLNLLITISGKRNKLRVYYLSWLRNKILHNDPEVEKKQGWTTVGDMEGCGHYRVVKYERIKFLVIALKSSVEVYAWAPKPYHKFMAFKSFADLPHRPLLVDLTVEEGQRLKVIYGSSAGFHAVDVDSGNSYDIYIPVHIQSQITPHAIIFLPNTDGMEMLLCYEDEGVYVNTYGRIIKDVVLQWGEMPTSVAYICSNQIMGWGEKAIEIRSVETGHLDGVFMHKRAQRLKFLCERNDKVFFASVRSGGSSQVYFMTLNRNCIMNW
T3 sequence (Q9UIK4 whole entry): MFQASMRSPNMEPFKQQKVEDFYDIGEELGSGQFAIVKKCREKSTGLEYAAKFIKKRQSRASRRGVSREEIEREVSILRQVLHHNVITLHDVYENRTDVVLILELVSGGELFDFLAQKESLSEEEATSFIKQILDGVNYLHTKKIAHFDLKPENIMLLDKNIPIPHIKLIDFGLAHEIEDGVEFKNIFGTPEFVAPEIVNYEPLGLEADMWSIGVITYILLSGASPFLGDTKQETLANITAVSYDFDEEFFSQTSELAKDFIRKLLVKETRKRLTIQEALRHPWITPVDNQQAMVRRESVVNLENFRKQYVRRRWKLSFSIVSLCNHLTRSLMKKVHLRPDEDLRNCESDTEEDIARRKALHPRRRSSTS

In the case of FAKLAARLYRKALARQLGVAA [MMI-0300], the “% activity” value (MINK (h)) is reported as 48%, the “% activity” value (ASK1 (h)) is reported as 80% and the “% activity” value (DAPK2 (h)) is reported as 32%. For the same sequence, the “% activity” value (Ron (h)) was 93%, the “% activity” value (Tie2 (h)) was 26% and the “% activity” value (MAPKAP-K2 (h)) was 5%.
In the case of “HRRIKAWLKKIKALARQLGVAA (Mammalian) [MMI-0500]”, the “% activity” value (MINK (h)) is reported as 5%, the “% activity” value (ASK1 (h)) is reported as −4% and the “% activity” value (DAPK2 (h)) is reported as 3%. For the same sequence, the “% activity” value (Ron (h)) was 46%, the “% activity” value (Tie2 (h)) was 22% and the “% activity” value (MAPKAP-K2 (h)) was 9%.
KAFAKLAARLYRKALARQLGVAA [MMI-0400] was tested, and the “% activity” value (MINK (h)) was 52%, the “% activity” value (ASK1 (h)) was 69% and the “% activity” value (DAPK2 (h)) was 16%. For the same sequence, the “% activity” value (Ron (h)) was 79%, the “% activity” value (Tie2 (h)) was 21% and the “% activity” value (MAPKAP-K2 (h)) was 5%.
For “YARAAARQARAKALNRQLGVA (Mammalian) [MMI-0200]”, the “% activity” value (ASK1 (h)) was 101%, the “% activity” value (DAPK2 (h)) was 92% and the “% activity” value (Ron (h)) was 120%. For the same sequence, the “% activity” value (Tie2 (h)) was 53% and the “% activity” value (MAPKAP-K2 (h)) was 35%.
